B1: library; numbered along this chain (parent)
chain: MRKPRAAVGSGHRKQAASQEGRQKHAKNNSQAKPSACDGLARQPEEVVLQASVSSYHLFRDVAEVTAFRGSLLSWYDQEKRDLPWRRRAEDEMDLDRRAYAVWVSEVMLQQTQVATVINYYTGWMQKWPTLQDLASASLEEVNQLWAGLGYYSRGRRLQEGARKVVEELGGHMPRTAETLQQLLPGVGRYTAGAIASIAFGQATGVVDGNVARVLCRVRAIGADPSSTLVSQQLWGLAQQLVDPARPGDFNQAAMELGATVCTPQRPLCSQCPVESLCRARQRVEQEQLLASGSLSGSPDVEECAPNTGQCHLCLPPSEPWDQTLGVVNFPRKASRKPPREESSATCVLEQPGALGAQILLVQRPNSGLLAGLWEFPSVTWEPSEQLQRKALLQELQRWAGPLPATHLRHLGEVVHTFSHIKLTYQVYGLALEGQTPVTTVPPGARWLTQEEFHTAAVSTAMKKVFRVYQGQQPGTCMGSKRSQVSSPCSRKKPRMGQQVLDNFFRSHISTDAHSLNSAAQ

Variants of: B1
Test: 8OG:A repair function score (normalized; synonymous = 0, nonsense = -1) (normalized log-likelihood score); higher = more repair activity (WT-like)
Conditions: with 8OG:A DNA repair reporter (GFP) in HEK-293 MUTYH KO cells
Method in brief: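 Lentiviral MUTYH cDNA NNN codon-scan libraries in HEK-293 MUTYH knockout cells (10 pg/ml doxycycline) were co-transfected with an 8OG:A GFP repair reporter plus mCherry. At 72 h, viable mCherry+ cells were sorted into GFP+ (repair) and GFP− bins, three replicates per tile, then tile amplicons were sequenced. Per-tile Rosace fitness scores became a normalized repair function score anchored on synonymous and nonsense distributions. Synonymous medians were set to 0 and nonsense to -1; variants under 300 counts per million at the start were removed.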

8OG:A repair function score, by site and new letter:
Y425: K -0.0804 | I 0.315 | M 0.236 | F -0.11 | C -0.509 | N -0.608 | S -0.31 | W -0.328 | L -0.213 | A -0.637 | D -0.805 | P -0.934 | E -0.544
Q426: C -0.0839 | A -0.0345
V415: P -0.0885 | M 0.0821 | Q 0.189 | A 0.0175 | Y -0.275 | R 0.157 | H -0.115 | L 0.0523 | E -0.106 | C 0.022 | K -0.327 | W 0.0208 | N -0.11 | I 0.053 | T -0.106 | S 0.0289 | F -0.391 | G -0.172 | D -0.364
L411: V 0.0699 | K -0.505 | F -0.151 | Q -0.494 | E -0.473 | H 0.0947 | M -0.193 | R -0.222 | S -0.29 | G -0.531 | D -0.751 | T -0.469 | N -0.503 | P -0.665 | W -0.28 | A -0.00099 | Y 0.251 | I 0.148 | C 0.0617
R409: P -0.541 | H -0.288 | K -0.145 | F -0.167 | C -0.178 | G -0.342 | W 0.0733 | A -0.0367 | M -0.242 | V 0.0575 | T 0.31 | Q -0.332 | D -0.0632 | L 0.0499 | I -0.183 | N -0.0513 | E 0.0558 | S 0.0978 | Y -0.0918
F418: S -0.474 | V -0.269 | W -0.969 | L -0.304 | C -0.171 | Q -0.554 | K -0.75 | N -0.355 | R -0.722 | I 0.255 | E -0.889 | T -0.165 | G -0.636 | A -0.333 | Y -0.368 | P -0.719 | H -0.4 | M 0.07 | D -1.06
H420: R -0.393 | I -0.666 | L -0.527 | A -0.146 | Q -0.0915 | K -0.792 | D -0.651 | S -0.494 | P -0.877 | W -0.434 | N -0.608 | M -0.23 | C -0.465 | T -0.525 | E -0.781 | G -0.0793 | V -0.371 | F -0.576 | Y -0.672
V414: Y -0.314 | P -1.01 | L -0.0973 | A -0.157 | G -0.649 | H -0.326 | M -0.321 | D -0.769 | E -0.742 | R -0.625 | C 0.129 | N -0.679 | F -0.187 | T -0.0984 | S -0.294 | W -0.504 | Q -0.321 | K -0.609 | I -0.137
T417: S 0.0785 | D -0.0817 | A 0.198 | N 0.149 | Q -0.0624 | W -0.253 | M 0.321 | H -0.254 | G -0.208 | R 0.199 | F 0.0432 | C -0.188 | Y 0.325 | K 0.36 | L -0.0186 | P -0.506 | I -0.142 | V 0.0389 | E 0.0158
L423: A 0.0643 | I -0.059 | R -0.232 | W -0.0181 | E -0.289 | C 0.0721 | Q 0.416 | V -0.132 | M 0.142 | S 0.137 | T -0.513 | P -0.683 | N -0.091 | K -0.269 | H 0.0797 | G 0.0807 | F -0.0863 | D -0.261 | Y -0.0686

Reference: the supplement of paper PMC11908140
